According to patent publication US8809287B2, “Compositions and methods for altering Wnt autocrine signaling” (Icahn School of Medicine at Mount Sinai, priority 2004, dated 2014):

What was measured:
uncomplexed β-catenin [1] = assay: GST-E-cadherin binding assay / immunoblot of uncomplexed β-catenin, Wnt-3a expressing NIH3T3 cells; assay type: cell-based, mouse; conditions: NIH3T3 cells stably expressing Wnt-3a; purified DKK1 (10 nM)
Protocol: (§1) β-catenin levels were assessed using the GST-E-cadherin binding assay, which has been previously described (Bafico et al., (1998) Oncogene 16:2819-2825). Briefly, bacterially expressed GST-E-cadherin was purified with glutathione-Sepharose beads and incubated with 1 mg of each cell lysate. The GST-E-cadherin/[…]-catenin complex bound to the beads was recovered by centrifugation and analyzed by SDS-PAGE followed by immunoblotting. The uncomplexed β-catenin was detected using a monoclonal antibody to β-catenin (Transduction Laboratories). Unphosphorylated β-catenin was detected with a monoclonal antibody specific for β-catenin dephosphorylated at residues 27-37 (Alexis, Läufelfingen, Switzerland). FRP1-HA and DKK1-HA were detected with an anti-HA monoclonal antibody (Hybridoma Center, Mount Sinai School of Medicine, New York). […]

uncomplexed β-catenin [2] = assay: GST-E-cadherin binding assay / immunoblot, NIH3T3 cells expressing β-catenin under Tet promoter; assay type: cell-based, mouse; conditions: β-catenin under tet regulatable promoter, purified DKK1 (10 nM)
Protocol: as §1

[3] = system: TCF dependent transcription; assay: TOP-Glow/FOP-Glow TCF reporter assay in PAI tumor cells; assay type: cell-based, human; conditions: PAI ovarian tumor cells, 48 hours
Protocol: Wnt signaling activates TCF dependent transcription, which can be monitored by reporters containing TCF responsive elements (Morin et al., (1997) Science 275:1787-1790). TCF responsive elements operably linked to a reporter (TOP-Glow, wild type, or FOP-Glow, mutant) were analyzed for transcriptional activity in PAI tumor cells in the presence or absence of DKK1. Ovarian tumor PAI cells plated at 3×10^5 per well in 6-well plates were co-transfected with 1 μg of either the TOP-glow or FOP-glow plasmids (Upstate Biotechnology, Waltham, Mass.) and 0.001 μg of the Renilla control plasmid (pRL-CMV) utilizing Fugene (Roche) according to the manufacturer's instructions. After 48 hours cells were lysed and analyzed utilizing the Dual Luciferase Reporter Assay system (Promega, Madison, Wis.). […] These findings further established that TCF dependent transcription was constitutively activated in these tumor cells by an autocrine Wnt mechanism.

uncomplexed β-catenin [4] = assay: Uncomplexed β-catenin in HCT116 wild type or mutant β-catenin allele clones; assay type: cell-based, human; conditions: FRP1-HA transfection
Protocol: β-catenin levels were assessed using the GST-E-cadherin binding assay, which has been previously described (Bafico et al., (1998) Oncogene 16:2819-2825). Briefly, bacterially expressed GST-E-cadherin was purified with glutathione-Sepharose beads and incubated with 1 mg of each cell lysate. The GST-E-cadherin/[…]-catenin complex bound to the beads was recovered by centrifugation and analyzed by SDS-PAGE followed by immunoblotting. The uncomplexed β-catenin was detected using a monoclonal antibody to β-catenin (Transduction Laboratories). Unphosphorylated β-catenin was detected with a monoclonal antibody specific for β-catenin dephosphorylated at residues 27-37 (Alexis, Läufelfingen, Switzerland). FRP1-HA and DKK1-HA were detected with an anti-HA monoclonal antibody (Hybridoma Center, Mount Sinai School of Medicine, New York).
HCT116 parental cells and clones expressing either the wild type or mutant β-catenin allele were transfected with FRP1-HA and subjected to the GST-E-cadherin binding assay (described in Example 3) to examine the effect of FRP1 on uncomplexed β-catenin levels. Uncomplexed β-catenin was detected with anti-β-catenin antibody. The levels of FRP1 in the lysates were detected with an anti-HA antibody. […]

ID2 = assay: Northern blot of Id2 in HCT116 clones; assay type: cell-based, human; conditions: HCT116 wild type β-catenin allele clone
Excerpt: (§2) We next assessed the effects of FRP1 inhibition on the expression of Id2, Cyclin D1 and Myc, known targets of Wnt/β-catenin in colorectal cancer (Rockman et al. (2001) J. Biol. Chem. 276:45113-45119; Tetsu and McCormick (1999) Nature 398:422-426; He et al. (1998) Science 281:1509-1512). RNAs were extracted from HCT116 parental cells, and either wild type or mutant β-catenin allele containing clones transfected with either vector control or FRP1-HA using Triazol (Invitrogen). The RNAs were separated by (1%) agarose gel electrophoresis and transferred to a nylon membrane (Hybond®, Pharmacia). Probes were labeled by the Random Prime Labelling System method (Amersham Biosciences), and hybridization was performed overnight utilizing the Hybrisol I solution (Serologicals Corporation) according to the manufacturer's instructions. Normalization was performed utilizing a commercial human GADPH control probe (BD Biosciences Clontech).

cyclin D1 = assay: Northern blot of Cyclin D1 in HCT116 clone; assay type: cell-based, human; conditions: HCT116 wild type allele-containing clone
Excerpt: as §2

MYC = assay: Northern blot of Myc in HCT116 clone; assay type: cell-based, human; conditions: HCT116 wild type allele-containing clone
Excerpt: as §2

Molecule | up-regulated β-catenin levels (uncomplexed β-catenin [1]) | uncomplexed β-catenin induced by exogenous β-catenin (uncomplexed β-catenin [2]) | level of endogenous TCF dependent signaling [3] | uncomplexed β-catenin levels (uncomplexed β-catenin [4]; HCT116 clone containing only the mutant β-catenin allele) | β-catenin levels (uncomplexed β-catenin [4]; HCT116 wild type β-catenin allele-containing clone) | Id2 transcript level (ID2) | expression of Cyclin D1 (cyclin D1) | expression of Myc (MYC)
DKK1: Dickkopf-1, secreted Wnt antagonist protein that binds Wnt co-receptor LRP6; used purified, in conditioned media or retrovirally expressed with HA tag (protein, UniProt O94907 32-266, looked up, HA tag in some uses) Dickkopf-related protein 1: TLNSVLNSNAIKNLPPPLGGAAGHPGSAVSAAPGILYPGGNKYQTIDNYQPYPCAEDEECGTDEYCASPTRGGDAGVQICLACRKRRKRCMRHAMCCPGNYCKNGICVSSDQNHFRGEIEETITESFGNDHSTLDGYSRRTTLSSKMYHTKGQEGSVCLRSSDCASGLCCARHFWSKICKPVLKEGQVCTKHRRKGSHGLEIFQRCYCGEGLSCRIQKDHHQASNSSRLHTCQRH | striking inhibition of up-regulated β-catenin levels | no effect | striking reduction |  |  |  |  | 
FRP1: human secreted Frizzled Related Protein 1, Wnt antagonist; expressed from pBabe-derived retrovirus with carboxy-terminal HA tag (protein, UniProt Q8N474 32-314, looked up, C-terminal HA tag, human secreted Frizzled Related Protein 1, Wnt antagonist; expressed from pBabe-derived retrovirus with carboxy-terminal HA tag) Secreted frizzled-related …: SEYDYVSFQSDIGPYQSGRFYTKPPQCVDIPADLRLCHNVGYKKMVLPNLLEHETMAEVKQQASSWVPLLNKNCHAGTQVFLCSLFAPVCLDRPIYPCRWLCEAVRDSCEPVMQFFGFYWPEMLKCDKFPEGDVCIAMTPPNATEASKPQGTTVCPPCDNELKSEAIIEHLCASEFALRMKIKEVKKENGDKKIVPKKKKPLKLGPIKKKDLKKLVLYLKNGADCPCHQLDNLSHHFLIMGRKVKSQYLLTAIHKWDKKNKEFKNFMKKMKNHECPTFQSVFK |  |  |  | little if any effect | dramatic reduction | reduction | dramatically inhibited | dramatically inhibited
